Assays:
[1] = tested on: TK deficient E. coli strain KY895; assay: Determination of LD100 of nucleoside analogues on M9 plates, E. coli KY895 transformed with kinase variant plasmids; type: cell-based; conditions: KY895 expressing the variant
Excerpt: The mutagenized PCR fragments were purified by the PCR Kit from Boehringer Mannhein, cut with BamHI and EcoRI and sub-cloned into the multiple cloning site of the pGEX-2T plasmid vector. The TK deficient E. coli strain KY895 [F tdk-1 ilv] [Igarashi K, Hiraga S & Yura T: A deoxythymidine kinase deficient mutant of Eschericha coli. II. Mapping and transduction studies with phage Φ80; Genetics 1967 57 643-6541, was electro-transformed with the ligation mix, using standard techniques, and plated on LB-ampicillin (100 μg/ml) plates.
Overnight cultures of these colonies were diluted 200-fold in 10% glycerol and 2 μl drops of the dilution were spotted on M9 minimal medium plates [Ausubel F, Brent R, Kingston R E, Moore D D, Seidman J G, Smith J A & Struhl K (Eds.): Short protocols in molecular biology; Wiley, USA, 3rd Edition, 1995, p.1-2] supplemented with 0.2% glucose, 40 μg/ml isoleucine, 40 μg/ml valine, 100 μg/ml ampicillin and with or without nucleoside analogues.
All clones with increased sensitivity towards at least one nucleoside analogue were tested on M9 plates with logarithmic dilution of the nucleoside analogues to determine the lethal dose (LD100) of the nucleoside analogues, at which no growths of bacteria could be seen.
Plates were prepared by mixing the medium with the analogues at the lowest temperature possible, before pouring the plates.

[2] = cited from earlier work

B1: Dm-dNK: wild-type Drosophila melanogaster deoxyribonucleoside kinase (SEQ ID NO: 1) (protein)
chain: MAEAASCARKGTKYAEGTQPFTVLIEGNIGSGKTTYLNHFEKYKNDICLLTEPVEKWRNVNGVNLLELMYKDPKKWAMPFQSYVTLTMLQSHTAPTNKKLKIMERSIFSARYCFVENMRRNGSLEQGMYNTLEEWYKFIEESIHVQADLIIYLRTSPEVAYERIRQRARSEESCVPLKYLQELHELHEDWLIHQRRPQSCKVLVLDADLNLENIGTEYQRSESSIFDAISSNQQPSPVLVSPSKRQRVAR
modifications: Drosophila melanogaster; CDS (1)..(750)
For B1, the “LD100 araC” value ([1]; lethal dose (no growth of bacteria) of araC, range 3.16-1000 μM) was 1000 µM, the “LD100 2CdA” value ([1]; lethal dose of 2CdA, range 0.0316-100 μM, second line of last column) was 100 µM and the “LD100 AZT” value ([1]; lethal dose of AZT, range 0.01-100 μM) was 100 µM. For the same molecule, the “LD100 araA” value ([1]; lethal dose of araA, range 10-1000 μM, third line of last column) was >1000 µM, the “LD100 ddA” value ([1]; lethal dose of ddA, range 0.316-31.6 μM) was 31.6 µM and the “LD100 ddC” value ([1]; lethal dose of ddC, range 10-3500 μM, first line of last column) was >3500 µM. For the same molecule, the “catalytic rate of deoxyribonucleoside phosphorylation, higher than reported for any of the mammalian deoxyribonucleoside kinases” value ([2]; depending on the substrate) was 4-20,000 fold and the “turnover of thymidine, higher than catalysed by HSV1 thymidine kinase” value ([2]; thymidine, versus HSV1-TK) was 70 fold.
